Source: publication PMC2175353
Like-named read-outs stand apart in the source and are kept apart here.

Legend:
[1] = target: T1, v-Myb AMV (bacterial, pVM2028) (avian myeloblastosis virus (AMV), UniProt P01104 1-382); experiment: EMSA
[2] = target: T1, v-Myb AMV (bacterial, pVM2028); experiment: EMSA; remark: listed apart in the source

T1 sequence (P01104 whole entry): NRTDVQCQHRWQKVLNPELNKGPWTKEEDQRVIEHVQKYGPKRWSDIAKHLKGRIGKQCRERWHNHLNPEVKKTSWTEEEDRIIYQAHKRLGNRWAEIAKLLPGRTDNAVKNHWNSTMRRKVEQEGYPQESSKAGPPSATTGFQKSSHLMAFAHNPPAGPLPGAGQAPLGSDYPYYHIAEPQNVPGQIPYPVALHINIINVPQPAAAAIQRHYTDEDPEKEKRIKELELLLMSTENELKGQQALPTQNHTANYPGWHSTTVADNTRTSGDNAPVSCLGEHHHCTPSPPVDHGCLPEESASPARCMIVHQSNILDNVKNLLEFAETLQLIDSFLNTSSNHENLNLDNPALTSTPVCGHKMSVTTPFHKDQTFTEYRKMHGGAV

B1: mimA (mim-1 promoter Myb site A) (dsDNA)
DNA 1: GCTCTAAAAAACCGTTATAATGTACAGATATCTT
DNA 2: AAGATATCTGTACATTATAACGGTTTTTTAGAGC
Q: Does B1 bind [1]?
A: Result: binds

B2: MBS3wt (Myb site 3, lysozyme -2.7 kb enhancer) (dsDNA)
DNA 1: GGCTGGGAATATTTCTGTTTGACCACCATGGAG
DNA 2: CTCCATGGTGGTCAAACAGAAATATTCCCAGCC
Q: Does B2 bind [2]?
A: Result: no binding
